From paper PMC12017799, “Molecular mechanism of SmMYB53 activates the expression of SmCYP71D375, thereby modulating tanshinone accumulation in Salvia miltiorrhiza”

Target: SmMYB53 (Salvia miltiorrhiza, UniProt A0A059PSP0 1-372)
Assay: EMSA; SmMYB53 alone; LightShift Chemiluminescent EMSA kit (Beyotime) binding buffer, >30 min at 4 C; unlabeled competitor 10-fold; salt and pH not stated
Conditions: protein: recombinant; tags: His (pCold); label: biotin; blunt

Chain of SmMYB53 (A0A059PSP0 entry or part of it): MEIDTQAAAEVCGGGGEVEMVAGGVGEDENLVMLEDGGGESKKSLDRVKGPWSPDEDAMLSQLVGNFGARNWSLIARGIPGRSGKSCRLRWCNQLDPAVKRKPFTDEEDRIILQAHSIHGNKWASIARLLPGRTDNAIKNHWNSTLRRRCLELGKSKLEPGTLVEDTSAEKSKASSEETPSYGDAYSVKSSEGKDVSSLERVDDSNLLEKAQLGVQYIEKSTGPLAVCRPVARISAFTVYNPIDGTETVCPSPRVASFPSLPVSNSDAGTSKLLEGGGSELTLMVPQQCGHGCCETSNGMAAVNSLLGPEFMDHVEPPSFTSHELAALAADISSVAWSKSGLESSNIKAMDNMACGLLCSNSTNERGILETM

Binder | binding result
MBS1 probe (SmCYP71D375 promoter) (dsDNA) DNA 1: GCTTCAGTTGAGCTGCTTCAGTTGAGCTGCTTCAGTTGAGCT DNA 2: AGCTCAACTGAAGCAGCTCAACTGAAGCAGCTCAACTGAAGC | binds
MBS2 probe (SmCYP71D375 promoter) (dsDNA) DNA 1: AGATCCGTTGGAGAAGATCCGTTGGAGAAGATCCGTTGGAGA DNA 2: TCTCCAACGGATCTTCTCCAACGGATCTTCTCCAACGGATCT | binds
